Biological target: SCR^AxCxA, split Renilla luciferase fusion (Arabidopsis thaliana) (UniProt Q9M384)
Experiment: split reporter

UniProt Q9M384, sequence (Q9M384 whole entry, the tested form may be a part): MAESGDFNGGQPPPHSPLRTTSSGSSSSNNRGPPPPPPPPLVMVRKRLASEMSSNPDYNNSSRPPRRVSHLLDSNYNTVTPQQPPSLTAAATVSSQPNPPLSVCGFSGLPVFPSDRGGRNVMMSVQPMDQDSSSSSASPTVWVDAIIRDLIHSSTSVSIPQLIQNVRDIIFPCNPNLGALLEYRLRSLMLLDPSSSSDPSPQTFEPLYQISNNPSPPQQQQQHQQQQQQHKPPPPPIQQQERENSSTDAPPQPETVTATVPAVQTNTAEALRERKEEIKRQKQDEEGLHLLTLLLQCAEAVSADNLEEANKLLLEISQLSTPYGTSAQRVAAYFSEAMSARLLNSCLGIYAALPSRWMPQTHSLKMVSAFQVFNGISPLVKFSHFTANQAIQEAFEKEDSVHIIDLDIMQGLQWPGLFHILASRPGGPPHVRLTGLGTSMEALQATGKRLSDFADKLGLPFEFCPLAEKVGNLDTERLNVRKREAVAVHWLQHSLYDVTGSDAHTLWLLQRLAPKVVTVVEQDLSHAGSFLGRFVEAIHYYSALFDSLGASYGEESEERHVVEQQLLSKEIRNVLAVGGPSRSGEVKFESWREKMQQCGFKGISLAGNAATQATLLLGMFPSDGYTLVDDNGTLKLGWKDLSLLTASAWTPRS

B1: RBR, split Renilla luciferase fusion (natural protein)
chain: MEEVQPPVTPPIEPNGKRSEASLLDICEKVLSLDGSTCDEALKLFTETKRILSASMSNIGSGTREEVERFWFAFILYSVKRLSVRKEADGLSVSGDNEFNLCQILRALKLNIVDFFKELPQFVVKAGSVLGELYGADWENRLQAKEVQANFVHLSLLSKYYKRGFREFFLTYDANAEKNSANSSTYLLDSYRFGWLLFLALRNHAFSRFKDLVTCSNGVVSILAILIIHVPCRFRNFSIQDSSRFVKKGDKGVDLVASLCKIYDASEDELRIVIDKANNLVETILKKKPSPASECQTDKLDNIDPDGLTYFEDLLEETSISTSLITLEKDYYDGKGELDERVFINEEDSLLGSGSLSAGAVNITGVKRKIDALSSPARTFISPLSPHKSPAAKTNGISGATKLAATPVSTAMTTAKWLRTVISPLLPKPSPGLEHFLKSCDRDITNDVTRRAHIILEAIFPNSSLGAQCGGGSLQAVDLMDDIWAEQRRLEACKLYYRVLEAMCKAEAQILHANNLNSLLTNERFHRCMLACSAELVLATHKTITMLFPAVLERTGITAFDLSKVIESFIRHEDSLPRELRRHLNSLEERLLESMVWEKGSSMYNSLIVARPSLALEINQLGLLAEPMPSLDAIAALINFSDGANHASSVQKHETCPGQNGGIRSPKRLCTDYRSILVERNSFTSPVKDRLLALGNVKSKMLPPPLQSAFASPTRPNPGGGGETCAETGINIFFTKINKLAAVRINGMVERLQLSQQIRESVYCFFQHVLAQRTSLLFSRHIDQIILCCFYGVAKISQMSLTFREIIYNYRKQPQCKPLVFRSVYVDALQCRRQGRIGPDHVDIITFYNEIFIPAVKPLLVELGPVRNDRAVEANNKPEGQCPGSPKVSVFPSVPDMSPKKVSAVHNVYVSPLRGSKMDALISHSTKSYYACVGESTHAYQSPSKDLSAINNRLNNSSSNRKRTLNFDAEAGMVSDSMVANSLNLQNQNQNQNGSDASSSGGAAPLKTEPTDS
With B1 as the binder, how does the percent of the RBR-SCR interaction (split Renilla luciferase) read?
Its percent of the RBR-SCR interaction (split Renilla luciferase) is 11%.

From article PMC3500399
